Measurements as given in article PMC2665095 (The Journal of Biological Chemistry, 2009).

Assays:
[1] = target: T1, PBS3 (AtGH3.12; His-PBS3) (Arabidopsis thaliana, UniProt Q9LYU4); assay: HPLC of pABA-Glu formation; format: biochemical
T1 sequence (Q9LYU4 1-575): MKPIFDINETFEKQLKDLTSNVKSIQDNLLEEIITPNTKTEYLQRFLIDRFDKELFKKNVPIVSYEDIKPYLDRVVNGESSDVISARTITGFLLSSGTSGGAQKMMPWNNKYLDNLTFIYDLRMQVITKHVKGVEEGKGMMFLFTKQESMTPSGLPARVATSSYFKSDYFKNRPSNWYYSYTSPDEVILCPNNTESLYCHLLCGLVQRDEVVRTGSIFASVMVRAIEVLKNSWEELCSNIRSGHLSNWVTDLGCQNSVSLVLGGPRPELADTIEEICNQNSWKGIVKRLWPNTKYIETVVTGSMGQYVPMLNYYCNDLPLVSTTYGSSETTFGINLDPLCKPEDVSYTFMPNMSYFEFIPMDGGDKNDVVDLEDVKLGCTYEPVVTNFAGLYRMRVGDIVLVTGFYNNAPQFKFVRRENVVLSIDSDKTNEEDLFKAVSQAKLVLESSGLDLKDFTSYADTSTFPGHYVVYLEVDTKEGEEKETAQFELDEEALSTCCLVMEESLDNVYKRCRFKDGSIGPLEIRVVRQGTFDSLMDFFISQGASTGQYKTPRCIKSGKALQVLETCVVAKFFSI

[2] = target: T1, PBS3 (AtGH3.12; His-PBS3); assay: coupled adenylation assay; format: biochemical; settings: 150 μM pABA, 5 mM ATP, 5 mM MgCl2, pH 7.4
[3] = substrate: C=C(O[C@H]1C=CC=C(C(=O)O)[C@@H]1O)C(=O)O; assay: coupled spectrophotometric assay; format: biochemical, Pseudomonas aeruginosa; settings: modified ICS assay conditions (100 mM Tris, pH 7.7)
[4] = substrate: Nc1ncnc2c1ncn2[C@@H]1O[C@H](COP(=O)(O)OP(=O)(O)OP(=O)(O)O)[C@@H](O)[C@H]1O; assay: purified protein; settings: with 10 mM 4-HBA, Mg2+, pH 7.4, 30 °C
[5] = substrate: Nc1ccc(C(=O)O)cc1; assay: purified protein; settings: 10 mM Glu, 5 mM ATP, 5 mM MgCl2, pH 8.5
[6] = substrate: O=C(O)c1ccccc1; assay: purified protein; settings: 10 mM Glu, 5 mM ATP, 5 mM MgCl2, pH 8.5
[7] = substrate: O=C(O)c1ccc(O)cc1; assay: purified protein; settings: 10 mM Glu, 5 mM ATP, 5 mM MgCl2, pH 8.5

**Q.** `O=C(O)c1ccccc1O` [salicylate] was tested. Which IC50 [1] did it give?
**A.** ~15 µM

**Q.** For `O=C(O)c1cc(Cl)nc(Cl)c1` [INA], which “Fractional inhibition (300 μM)” value [2] is on record?
**A.** 0.70 fraction

B1: PchB (isochorismate pyruvate lyase) (Pseudomonas aeruginosa PAO1) (protein)
chain: MKTPEDCTGLADIREAIDRIDLDIVQALGRRMDYVKAASRFKASEAAIPAPERVAAMLPERARWAEENGLDAPFVEGLFAQIIHWYIAEQIKYWRQTRGAA
**Q.** How did the Km [3] turn out when B1 was run?
**A.** 60 µM

B2: PBS3 (AtGH3.12; His-PBS3) (Arabidopsis thaliana) (protein)
chain: MKPIFDINETFEKQLKDLTSNVKSIQDNLLEEIITPNTKTEYLQRFLIDRFDKELFKKNVPIVSYEDIKPYLDRVVNGESSDVISARTITGFLLSSGTSGGAQKMMPWNNKYLDNLTFIYDLRMQVITKHVKGVEEGKGMMFLFTKQESMTPSGLPARVATSSYFKSDYFKNRPSNWYYSYTSPDEVILCPNNTESLYCHLLCGLVQRDEVVRTGSIFASVMVRAIEVLKNSWEELCSNIRSGHLSNWVTDLGCQNSVSLVLGGPRPELADTIEEICNQNSWKGIVKRLWPNTKYIETVVTGSMGQYVPMLNYYCNDLPLVSTTYGSSETTFGINLDPLCKPEDVSYTFMPNMSYFEFIPMDGGDKNDVVDLEDVKLGCTYEPVVTNFAGLYRMRVGDIVLVTGFYNNAPQFKFVRRENVVLSIDSDKTNEEDLFKAVSQAKLVLESSGLDLKDFTSYADTSTFPGHYVVYLEVDTKEGEEKETAQFELDEEALSTCCLVMEESLDNVYKRCRFKDGSIGPLEIRVVRQGTFDSLMDFFISQGASTGQYKTPRCIKSGKALQVLETCVVAKFFSI
**Q.** With B2 as the molecule, how does the Km [4] read?
**A.** 791 µM

**Q.** What about the Km [5] of the same molecule?
**A.** 153 µM

**Q.** What about the kcat [5] of the same molecule?
**A.** 0.0457 s⁻¹

**Q.** And the kcat/Km [5]?
**A.** 298 M⁻¹ s⁻¹

**Q.** What about the Km [6] of the same molecule?
**A.** 867 µM

**Q.** And the kcat [6]?
**A.** 0.066 s⁻¹

**Q.** What about the kcat/Km [6] of the same molecule?
**A.** 76.7 M⁻¹ s⁻¹

**Q.** And the Km [7]?
**A.** 459 µM

**Q.** And the kcat [7]?
**A.** 0.339 s⁻¹

**Q.** What about the kcat/Km [7] of the same molecule?
**A.** 740 M⁻¹ s⁻¹
